We go through three molecules from PMC6755090.

One data set concerns the target T1, Escherichia coli σ^70 (Escherichia coli, UniProt P00579 1-613).
T1 construct: RNA polymerase sigma factor σ^70 (RpoD) of Escherichia coli; holds σR2, σR3, σR3.2 and σR4 (helices S1-S5); also called principle σ factor
In words: cryo-EM structure; σ appropriation complex assembled from σ^70, AsiA, RNAP core enzyme, MotA and a P_(uvsX) DNA scaffold, purified on Superose 6 in 10 mM HEPES pH 7.5, 50 mM KCl; 8 mM CHAPSO added; 3.79 Å. Conditions: both partners purified.

The target in another data set is T2, AsiA (bacteriophage T4, UniProt P32267 1-90).
T2 sequence: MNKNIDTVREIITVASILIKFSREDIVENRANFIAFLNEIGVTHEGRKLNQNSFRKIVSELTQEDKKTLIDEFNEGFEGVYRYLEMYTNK
In words: fluorescence polarization; comparable affinity to the promoter scaffold; KD only in figure; FP: 10 mM HEPES pH 7.5, 50 mM KCl, 25°C, 0.1 μM DNA, 0-100 μM AsiA; EMSA: 7 mM Tris-HCl and 50 mM Tris-Ac pH 7.9, 0.19 M KGlu, 5 mM MgAc2, 50 mM K-phosphate pH. Conditions: protein: recombinant; tags: N-His6; label: 5' 6-FAM. (In general: In fluorescence polarisation assays a small probe gives low polarisation when free and higher when bound to something large.)

T1 sequence (P00579 whole entry): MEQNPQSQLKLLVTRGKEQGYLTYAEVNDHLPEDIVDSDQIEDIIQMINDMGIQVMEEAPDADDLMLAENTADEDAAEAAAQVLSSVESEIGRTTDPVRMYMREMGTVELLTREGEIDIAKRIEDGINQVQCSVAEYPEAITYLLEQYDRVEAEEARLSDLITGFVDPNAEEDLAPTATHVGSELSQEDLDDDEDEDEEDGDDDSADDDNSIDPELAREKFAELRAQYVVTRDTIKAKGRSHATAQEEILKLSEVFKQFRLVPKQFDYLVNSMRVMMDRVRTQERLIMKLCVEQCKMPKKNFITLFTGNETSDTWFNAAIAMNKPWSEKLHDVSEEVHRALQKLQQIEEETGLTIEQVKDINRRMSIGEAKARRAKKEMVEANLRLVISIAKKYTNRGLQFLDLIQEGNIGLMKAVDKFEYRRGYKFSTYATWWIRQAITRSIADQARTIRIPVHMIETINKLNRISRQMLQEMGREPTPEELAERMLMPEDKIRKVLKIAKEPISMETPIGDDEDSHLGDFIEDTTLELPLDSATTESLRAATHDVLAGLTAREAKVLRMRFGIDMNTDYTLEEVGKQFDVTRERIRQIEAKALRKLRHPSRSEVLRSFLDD

B1: AsiA (natural protein, bacteriophage T4)
chain: MNKNIDTVREIITVASILIKFSREDIVENRANFIAFLNEIGVTHEGRKLNQNSFRKIVSELTQEDKKTLIDEFNEGFEGVYRYLEMYTNK
notes: AsiA, anti-sigma 70 protein of bacteriophage T4; synthetic gene in pET28a; A6 is the C-terminal helix; also called AisA; N-hexahistidine-tagged AsiA; source: E. coli BL21(DE3), plasmid pET28a-NH-AsiA, purified (Ni-NTA, Mono Q)
With B1, the binding result with Escherichia coli σ^70 is “binds”.

B2: irrelevant DNA scaffold (FP) (dsDNA)
DNA 1: GCAAATGAGCAACA
DNA 2: TGTTGCTCATTTGC
With B2, in the data set with AsiA, the binding result was “binds”.

B3: MotA (natural protein, bacteriophage T4, UniProt P22915 1-211, looked up)
chain: MSKVTYIIKASNDVLNEKTATILITIAKKDFITAAEVREVHPDLGNAVVNSNIGVLIKKGLVEKSGDGLIITGEAQDIISNAATLYAQENAPELLKKRATRKAREITSDMEEDKDLMLKLLDKNGFVLKKVEIYRSNYLAILEKRTNGIRNFEINNNGNMRIFGYKMMEHHIQKFTDIGMSCKIAKNGNVYLDIKRSAENIEAVITVASEL
notes: synthetic gene in pET21a; source: E. coli BL21(DE3), plasmid pET21a-MotA, purified (HiTrap Heparin, Mono S)
For the molecule B3, the binding result with Escherichia coli σ^70 is reported as “binds”.
